Reference: patent publication US20110064751A1 (Hoffmann-La Roche, published 2011)
Blank lines part the entries; values can stand above or below the binder they belong to.

Assays:
[1] = molecular target: T1, Extra Domain B of fibronectin (EDB) (UniProt P02751 1266-1356); test: BIACORE SPR, EDB immobilized on the chip, analyte at 1.56, 3.125 and 6.25 nM
T1 construct: domain: Extra Domain B; construct not described; also called fibronectin Ectodomain-B

[2] = molecular target: T1, Extra Domain B of fibronectin (EDB); test: SPR (BIACORE), EDB immobilized on the chip, construct as analyte
Cynomolgus FAP = molecular target: T2, Cynomolgus FAP (Cynomolgus); test: SPR (ProteOn XPR36), purified Fab, monovalent binding
T2 construct: construct not described; also called cyno FAP

[3] = molecular target: T3, Murine FAP ectodomain + poly-lys-tag + his6-tag (murine, UniProt P97321 27-761); test: as above
T3 construct: also called mu FAP

[4] = molecular target: T4, Human FAP ectodomain + poly-lys-tag + his6-tag (human, UniProt Q12884 27-760); test: as above
T4 construct: also called hu FAP

[5] = molecular target: T5, DPPIV expressed on HEK293 or CHO cells (Homo sapiens (Human), UniProt P27487 1-766); test: binding to DPPIV-expressing HEK293 or CHO cells
T5 construct: also called close homologue of FAP

[6] = molecular target: T6, Human TNC-A1 + avi-tag + his6-tag (human, biotinylated in vivo at the avi-tag); test: phage display selection and ELISA on biotinylated human TNC-A1
T6 chain: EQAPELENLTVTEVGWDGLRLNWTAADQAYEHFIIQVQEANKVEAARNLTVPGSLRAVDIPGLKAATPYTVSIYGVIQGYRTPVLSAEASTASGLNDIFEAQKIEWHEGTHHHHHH
Method: See SEQ ID NO: 59 of Table 5. The antigen was biotinylated in vivo upon expression.
Selections were carried out over 3 rounds using constant antigen concentrations at 100 nM. In round 2, capture of antigen:phage complexes was performed on neutravidin plates instead of streptavidin beads.

[7] = molecular target: T3, Murine FAP ectodomain + poly-lys-tag + …; test: primary phage selections, ELISA and BIACORE kinetic screening
Method: See SEQ ID NOs: 53 and 55 of Table 5. Prior to selections, the antigens were coated into immunotubes at a concentration of either 10 μg/ml or 5 μg/ml, depending on round of selection.
Specific binders were defined as signals 5× higher than background and were identified by ELISA.
ELISA-positive clones were bacterially expressed as 1 mL cultures in 96-well format and supernatants were subjected to a kinetic screening experiment using BIACORE T100.

T1 sequence (P02751 1266-1356 limits assumed): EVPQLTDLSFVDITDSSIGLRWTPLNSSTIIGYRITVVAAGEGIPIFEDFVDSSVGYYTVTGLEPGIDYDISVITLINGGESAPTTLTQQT

Kd [1]: 0.263 nM
koff [1]: 0.000637 s⁻¹
kon [1]: 2.42e+06 M⁻¹ s⁻¹
Kd [2]: 0.26 nM
B1: L19 IgG (L19 antibody in the human IgG1 format) (antibody, V domains shown)
VH: EVQLLESGGGLVQPGGSLRLSCAASGFTFSSFSMSWVRQAPGKGLEWVSSISGSSGTTYYADSVKGRFTISRDNSKNTLYLQMNSLRAEDTAVYYCAKPFPYFDYWGQGTLVTVSS
VL: EIVLTQSPGTLSLSPGERATLSCRASQSVSSSYLAWYQQKPGQAPRLLIYYASSRATGIPDRFSGSGSGTDFTLTISRLEPEDFAVYYCQQTGRIPPTFGQGTKVEIK
notes: Human IgG1 format; also called the IgG

Kd (Cynomolgus FAP): 0.99 nM
Kd [3]: 0.125 nM
Kd [4]: 1.6 nM
binding result [5]: no binding
B2: 23C10 Fab (Fab, V domains shown)
VH: EVQLLESGGGLVQPGGSLRLSCAASGFTFSSSAMSWVRQAPGKGLEWVSAISTNGNYTYYADSVKGRFTISRDNSKNTLYLQMNSLRAEDTAVYYCAKGWLGNFDYWGQGTLVTVSS
VL: EIVLTQSPGTLSLSPGERATLSCRASQSVSRSYLAWYQQKPGQAPRLLIIGASTRATGIPDRFSGSGSGTDFTLTISRLEPEDFAVYYCQQGQVIPPTFGQGTKVEIK
notes: also called clone 23C10

binding result [6]: binds
B3: 2F11 Fab (Fab, V domains shown)
VH: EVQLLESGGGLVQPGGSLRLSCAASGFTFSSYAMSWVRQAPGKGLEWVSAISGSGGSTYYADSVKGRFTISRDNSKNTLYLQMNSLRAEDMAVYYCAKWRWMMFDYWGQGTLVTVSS
VL: EIVLTQSPGTLSLSPGERATLSCRASQSVSSSYLAWYQQKPGQAPRLLIYGASSRATGVPDRFSGSGSGTDFTLTISRLEPEDFAVYYCQQGQYTPPTFGQGTKVEIK
notes: Fab fragment; also called clone 2F11

binding result [7]: binds
B4: 4B8 Fab (Fab, V domains shown)
VH: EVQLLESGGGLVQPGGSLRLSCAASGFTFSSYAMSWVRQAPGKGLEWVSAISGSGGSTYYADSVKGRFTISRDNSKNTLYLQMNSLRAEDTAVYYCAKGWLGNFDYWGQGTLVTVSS
VL: EIVLTQSPGTLSLSPGERATLSCRASQSVSSSYLAWYQQKPGQAPRLLIYGASSRATGIPDRFSGSGSGTDFTLTISRLEPEDFAVYYCQQGQVIPPTFGQGTKVEIK
notes: Fab fragment; also called anti-murine FAP clone 4B8
